Patent US9187762B2, “Compositions and methods comprising sequences having hydroxyphenylpyruvate dioxygenase (HPPD) activity” (PIONEER HI-BRED INTERNATIONAL, INC., priority 2010, dated 2015)

Key:
[1] = tested on: maize HPPD; assay: ON rate ratio, OFF rate ratio and insensitivity parameter with herbicidal HPPD inhibitors; assay type: biochemical
Source text: To devise a parameter for detecting changes in inhibitor binding affinity, KD, one can utilize the relationship between KD and the rates of binding and release of inhibitor to and from the enzyme. [formula] Higher KD (reduced affinity or increased insensitivity) can be attained with a numerically smaller ON rate, a larger OFF rate or both. […] The ratio of the reaction rate with inhibitor to that without inhibitor during the 70 to 90 second interval of the reaction was termed the “ON rate ratio”. […] Incubations with the same concentrations of enzyme but no mesotrione were done in parallel. After 1 hr at room temperature, 5 to 10 ul of the enzyme-inhibitor complex was dispensed into the wells of the assay plate. Reactions were started with the addition of 290 to 295 ul of 25 mM Hepes, pH 7, 2 mM ascorbate, 10 uM FeSO4, 100 uM HPP and 50 nM HGD. The reactions were monitored at 320 nm for 12 min. Reaction velocity accelerates as inhibitor is released from the enzyme until a steady state is reached, during which the reaction velocity is constant. The ratio of the steady state rate in mixtures containing mesotrione (or other herbicidal inhibitor) to the initial velocity of mixtures lacking inhibitor is termed the “OFF rate ratio”. Another parameter to record is the time span required for the reactions with inhibitor to reach the steady state. […] It is not certain that the steady state attained in the OFF rate reactions actually represents an equilibrium where OFF rates are now equal to ON rates. Because substrate and inhibitors bind in the same site, the high concentration of substrate present may competitively trap the inhibitor and prevent it from binding again. To be sure that improvement in ON rates is being taken into account, the ON and OFF rate ratios were multiplied together and the product is termed the “insensitivity parameter”. […] The variants in Table 9 were grouped according to the parameter in which they are improved compared to wild type. The sequence positions are numbered according to the wild-type maize amino acid sequence of SEQ ID 1. Some substitutions are effective in multiple contexts, as discussed in the next section.

[2] = tested on: maize HPPD; assay: KD by isothermal titration calorimetry; assay type: binding
Method: To verify that the insensitivity parameter reflects improvement (elevation) in KD, KD was directly measured with isothermal titration calorimetry. […] Enzymes were transferred to a matrix of 25 mM Hepes, pH 7, 2 mM ascorbate and 10 uM FeSO4 by gel-filtration chromatography. Mesotrione or tembotrione were diluted into the same buffer. Enzyme concentrations in the cell ranged from 100 to 300 uM. Inhibitor concentrations in the syringe were always 8 times that of the cell concentration.

[3] = tested on: soybean plants; assay: Herbicide spray tests of transgenic HPPD soy plants (T1/T2) with multiple HPPD-inhibitor herbicides, visual injury; assay type: in vivo; details: T1 plants, V1 stage; mesotrione, tembotrione, topramezone, isoxaflutole
Method: T1 plants were evaluated for zygosity. Homozygous single-locus transgenic plants and their corresponding null segregants were identified and T2 true breeding seed was obtained from each. Plants were grown to the V1 to V2 growth stage and then sprayed with the commercial formulation of mesotrione, tembotrione, topramezone, and isoxaflutole. All treatments were applied with nonionic surfactant and ammonium sulfate in a spray volume of 374 L/ha. Multiple rates of each herbicide were applied so a response range could be used to compare the relative tolerance of the different herbicides as well as the relative tolerance of homozygous nulls and positives for each event. The herbicide response for individual treated plants was evaluated by comparing to untreated plants of similar genetic background. Herbicide response ratings were eight days after treatment. Visual injury was on a scale of 0 to 100% injury (0=no effect to 100=dead plant).
T1 soybean plants expressing D0223903 (SEQ ID NO: 3) driven by a synthetic promoter (as described in U.S. Pat. No. 6,072,050) were evaluated with qPCR for the presence of the transgene and null and positive segregants selected. Plants were sprayed at the V1 growth stage with the commercial formulations of mesotrione, tembotrione, topramezone, and isoxaflutole. Two rates of each herbicide were applied foliarly with nonionic surfactant and ammonium sulfate in a spray volume of 374 L/ha. The herbicide response for individual plants was determined by comparing to untreated plants of similar genetic background. Visual injury was on a scale of 0 to 100% injury (0=no effect to 100=dead plant).

B1: D0223903: shuffled maize HPPD variant, SEQ ID NO: 3; R341C mutation introduced into HPPD D0193494 (protein)
chain: MGPTPTATAAGAAVAAASAAEQAAFRLVGHRNFVRFNPRSDRFHTLAFHHVELWCADAASAAGRFSFALGAPLAARSDLSTGNSAHASLLLRSGSLSFLFTAPYAHGADAATAALPSFSAAAARRFAADHGLAVRAVALRVADAEDAFRASVAAGARPAFGPVDLGRGFRLAEVELYGDVVLRYVSYPDGAAGEPFLPGFEGVASPGAADYGLSRFDHIVGNVPELAPAAAYFAGFTGFHEFAEFTTEDVGTAESGLNSMALANNSENVLLPLNEPVHGTKRRSQIQTFLDHHGGPGVQHIALASDDVLRTLREMQARSAMGGFEFLPPPPSDYYDGVRRCAGDVLTEAQINECQELGVLVDRDDQGVLLQIFTKPVGDRPTFFLEIIQRIGCMEKDEKGQEYQKGGCGGFGKGNFSQLFKSIEDYEKSLEAKQAAAAATAQGS
modifications: HPPD variant
notes: R341C mutation introduced into HPPD D0193494
Insensitivity parameter (ON rate ratio × OFF rate ratio) relative to that of maize wild-type HPPD ([1]; Isoxaflutole (diketonitrile)): 12.3
Insensitivity parameter (ON rate ratio × OFF rate ratio) relative to that of maize wild-type HPPD ([1]; Sulcotrione): 3.3
Insensitivity parameter (ON rate ratio × OFF rate ratio) relative to that of maize wild-type HPPD ([1]; Topramezone): 12.7
Triple product (ON rate ratio × OFF rate ratio × kcat), relative to that of maize wild-type HPPD ([1]; inhibitor Isoxaflutole (diketonitrile)): 7.7
Triple product (ON rate ratio × OFF rate ratio × kcat), relative to that of maize wild-type HPPD ([1]; inhibitor Mesotrione): 3.7
Triple product (ON rate ratio × OFF rate ratio × kcat), relative to that of maize wild-type HPPD ([1]; inhibitor Sulcotrione): 2.1
Triple product (ON rate ratio × OFF rate ratio × kcat), relative to that of maize wild-type HPPD ([1]; inhibitor Tembotrione): 12.1
Triple product (ON rate ratio × OFF rate ratio × kcat), relative to that of maize wild-type HPPD ([1]; inhibitor Topramezone): 8.0
Insensitivity parameter (ON rate ratio × OFF rate ratio) relative to that of maize wild-type HPPD ([1]; mesotrione): 6.0
Insensitivity parameter (ON rate ratio × OFF rate ratio) relative to that of maize wild-type HPPD ([1]; tembotrione): 19.3
Fold vs wt (KD) ([2]; Mesotrione, sites modeled: One): 3.6
Fold vs wt (KD) ([2]; Mesotrione, sites modeled: Two): 4.9
Fold vs wt (KD) ([2]; Tembotrione, sites modeled: Two): 7.3
soybean tolerance to HPPD-inhibitor herbicides [3]: increased soybean tolerance
